Here are results for two molecules from publication PMC10397247.

One experiment concerns the target T1, O5-AA.
T1 chain: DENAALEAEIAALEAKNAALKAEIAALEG
In words: two-hybrid library CCmax.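 Note: natural log of median RNA to DNA barcode read ratio; higher means stronger binding.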

For a further experiment, the target named is T2, O8-AA.
T2 chain: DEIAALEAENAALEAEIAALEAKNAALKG
In words: two-hybrid library CCmax.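 Note: natural log of median RNA to DNA barcode read ratio; higher means stronger binding.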 The conditions noted are these: mean of both orientations.

Another experiment deals with T3, O7-AA.
T3 chain: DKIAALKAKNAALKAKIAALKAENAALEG
The experiment in a line: two-hybrid library CCmax.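 Note: natural log of median RNA to DNA barcode read ratio; higher means stronger binding.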 The conditions noted are these: mean of both orientations.

For a further experiment, the target named is T4, O1-AA.
T4 chain: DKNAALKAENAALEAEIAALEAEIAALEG
The experiment in a line: two-hybrid library CCmax.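 Note: natural log of median RNA to DNA barcode read ratio; higher means stronger binding.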

The target of another experiment is T5, O13-AA.
T5 chain: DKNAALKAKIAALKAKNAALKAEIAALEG
The experiment in a line: two-hybrid library CCmax.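 Note: natural log of median RNA to DNA barcode read ratio; higher means stronger binding.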 Particulars: mean of both orientations.

The target in the next experiment is T6, O14-AA.
T6 chain: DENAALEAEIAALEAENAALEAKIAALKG
The experiment in a line: two-hybrid library CCmax.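 Note: natural log of median RNA to DNA barcode read ratio; higher means stronger binding.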 The conditions noted are these: mean of both orientations.

Another experiment has as its target T7, O11-AA.
T7 chain: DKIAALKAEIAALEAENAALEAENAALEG
The experiment in a line: two-hybrid library CCmax.

The target of the next experiment is T8, P9-AA.
T8 chain: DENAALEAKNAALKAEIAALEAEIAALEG
In words: two-hybrid library CCmax. The conditions noted are these: mean of both orientations.

The target in another experiment is T9, O2-AA.
T9 chain: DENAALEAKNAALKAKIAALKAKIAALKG
The experiment in a line: two-hybrid library CCmax. The conditions noted are these: mean of both orientations.

The target in another experiment is T10, O3-AA.
T10 chain: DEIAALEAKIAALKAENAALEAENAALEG
In words: two-hybrid library CCmax. Particulars: mean of both orientations.

The target in a further experiment is T11, P10-AA.
T11 chain: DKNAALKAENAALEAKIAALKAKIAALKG
The experiment in a line: two-hybrid library CCmax. Particulars: mean of both orientations.

In the next experiment the target is T12, O6-AA.
T12 chain: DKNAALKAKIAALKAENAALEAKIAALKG
The experiment in a line: two-hybrid library CCmax. The conditions noted are these: mean of both orientations.

A further experiment has as its target T13, O4-AA.
T13 chain: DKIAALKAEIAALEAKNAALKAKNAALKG
The experiment in a line: two-hybrid library CCmax. The conditions noted are these: mean of both orientations.

Another experiment concerns the target T14, 4H3638-bA.
T14 chain: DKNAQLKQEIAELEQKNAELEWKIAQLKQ
In words: two-hybrid library CCNG1.

Another experiment addresses T15, 4H626-bA.
T15 chain: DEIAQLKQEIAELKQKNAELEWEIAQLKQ
In words: two-hybrid library CCNG1.

Another experiment deals with T16, 4H850-bA.
T16 chain: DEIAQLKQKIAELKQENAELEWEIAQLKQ
In words: two-hybrid library CCNG1.

In the next experiment the target is T17, 4H3497-bA.
T17 chain: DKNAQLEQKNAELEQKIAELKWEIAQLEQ
In words: two-hybrid library CCNG1.

Another experiment deals with T18, 4H1348-bA.
T18 chain: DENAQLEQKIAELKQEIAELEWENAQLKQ
In words: two-hybrid library CCNG1.

A further experiment addresses T19, 4H1710-bA.
T19 chain: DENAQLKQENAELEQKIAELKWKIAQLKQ
In words: two-hybrid library CCNG1.

The target in another experiment is T20, 4H1373-bA.
T20 chain: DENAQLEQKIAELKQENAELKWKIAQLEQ
The experiment in a line: two-hybrid library CCNG1.

The target in the next experiment is T21, 4H3298-bA.
T21 chain: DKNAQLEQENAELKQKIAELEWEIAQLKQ
In words: two-hybrid library CCNG1.

In the next experiment the target is T22, 4H3277-bA.
T22 chain: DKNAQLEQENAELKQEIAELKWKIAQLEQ
In words: two-hybrid library CCNG1.

The target in a further experiment is T23, 4H3462-bA.
T23 chain: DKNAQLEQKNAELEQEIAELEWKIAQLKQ
The experiment in a line: two-hybrid library CCNG1.

The next experiment has as its target T24, 4H591-bA.
T24 chain: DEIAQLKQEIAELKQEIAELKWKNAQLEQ
The experiment in a line: two-hybrid library CCNG1.

The next experiment deals with T25, 4H3613-bA.
T25 chain: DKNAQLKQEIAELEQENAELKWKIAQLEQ
In words: two-hybrid library CCNG1.

For a further experiment, the target named is T26, 4H3175-bA.
T26 chain: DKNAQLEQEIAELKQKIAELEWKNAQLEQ
In words: two-hybrid library CCNG1.

The target in another experiment is T27, 4H3926-bA.
T27 chain: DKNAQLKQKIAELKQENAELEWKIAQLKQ
The experiment in a line: two-hybrid library CCNG1.

Another experiment deals with T28, 4H3858-bA.
T28 chain: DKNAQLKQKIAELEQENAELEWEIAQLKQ
In words: two-hybrid library CCNG1.

In the next experiment the target is T29, 4H570-bA.
T29 chain: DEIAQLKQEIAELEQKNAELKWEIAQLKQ
The experiment in a line: two-hybrid library CCNG1.

The target of the next experiment is T30, 4H3162-bA.
T30 chain: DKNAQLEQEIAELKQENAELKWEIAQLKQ
In words: two-hybrid library CCNG1.

The next experiment has as its target T31, 4H1449-bA.
T31 chain: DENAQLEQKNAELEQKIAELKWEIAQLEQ
The experiment in a line: two-hybrid library CCNG1.

Another experiment concerns the target T32, 4H1544-bA.
T32 chain: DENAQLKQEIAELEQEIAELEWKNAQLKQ
In words: two-hybrid library CCNG1.

For a further experiment, the target named is T33, 4H3817-bA.
T33 chain: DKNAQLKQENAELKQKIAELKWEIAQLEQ
The experiment in a line: two-hybrid library CCNG1.

The target of a further experiment is T34, 4H1985-bA.
T34 chain: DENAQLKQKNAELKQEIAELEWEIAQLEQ
In words: two-hybrid library CCNG1.

Another experiment addresses T35, 4H3974-bA.
T35 chain: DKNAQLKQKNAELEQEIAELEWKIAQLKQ
In words: two-hybrid library CCNG1.

The next experiment addresses T36, 4H1899-bA.
T36 chain: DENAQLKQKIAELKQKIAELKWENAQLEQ
The experiment in a line: two-hybrid library CCNG1.

The target of another experiment is T37, 4H338-bH.
T37 chain: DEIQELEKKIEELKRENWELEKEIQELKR
In words: two-hybrid library CCNG1.

For the next experiment, the target named is T38, 4H3628-bA.
T38 chain: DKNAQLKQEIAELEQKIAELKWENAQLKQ
The experiment in a line: two-hybrid library CCNG1.

A further experiment deals with T39, 4H906-bA.
T39 chain: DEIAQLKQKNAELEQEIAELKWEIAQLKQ
In words: two-hybrid library CCNG1.

B1: O1-AA (peptide)
chain: DKNAALKAENAALEAEIAALEAEIAALEG
On to B1, for which the interaction score in the experiment with O5-AA is -1.72; in the experiment with O8-AA, -1.41; with O7-AA, -0.639; with O1-AA, -2.06; in the experiment with O13-AA, 0.0154; in the experiment with O14-AA, -1.66. The interaction score in the experiment with O11-AA is -1.61; in the experiment with P9-AA it was -0.278; with O2-AA, 2.13; with O3-AA it was -1.57; with P10-AA it was 1.05; in the experiment with O6-AA, -1.79. Besides, the interaction score with O4-AA is -1.07.

B2: 4H1348-bA (peptide)
chain: DENAQLEQKIAELKQEIAELEWENAQLKQ
For the molecule B2, the interaction score in the experiment with 4H3638-bA is -0.0281; with 4H626-bA, -0.434; in the experiment with 4H850-bA it was -0.292; in the experiment with 4H3497-bA it was -0.616; with 4H1348-bA it was 0.78; with 4H1710-bA, 0.798. Besides, the interaction score with 4H1373-bA was -0.7; in the experiment with 4H3298-bA it was -0.624; with 4H3277-bA, -0.24; with 4H3462-bA it was 0.657; with 4H591-bA, -1.02; with 4H3613-bA, -1.05. The interaction score was 0.0318 with 4H3175-bA; -0.392 in the experiment with 4H3926-bA; -0.895 with 4H3858-bA; -0.301 with 4H570-bA; -0.332 in the experiment with 4H3162-bA; -0.151 in the experiment with 4H1449-bA. Further, the interaction score with 4H1544-bA is -0.0997; with 4H3817-bA it was -0.318; with 4H1985-bA, -0.366; with 4H3974-bA it was 0.469; in the experiment with 4H1899-bA it was 1.63; with 4H338-bH it was 1.22. The results for the interaction score with 4H3628-bA and in the experiment with 4H906-bA were 1.84 and -0.721, respectively.
